Results on one molecule are retold here after patent US20170189519A1.

Details in all cases: remark: other sources report otherwise
In experiment [1] the target is 182G8 (influenza A H1N1 A/Brisbane/59/2007). Description: ELISA, coated CR6261, P. pastoris medium. In general terms: ELISA stands for enzyme-linked immunosorbent assay.
Experiment [2] has as its target 127H1 (influenza A H1N1 A/Brisbane/59/2007). Description: ELISA, coated CR6261, P. pastoris medium.
Experiment [3] deals with 275G3 (influenza A H1N1 A/Brisbane/59/2007). Briefly: ELISA, coated CR6261, P. pastoris medium.
Experiment [4] concerns the target 25304 (influenza A H1N1 A/Brisbane/59/2007). Briefly: ELISA, coated CR6261, P. pastoris medium.
Experiment [5] deals with 176A5 (influenza A H1N1 A/Brisbane/59/2007). Briefly: ELISA, coated CR6261, P. pastoris medium.
Experiment [6] addresses 234C5 (influenza A H1N1 A/Brisbane/59/2007). Description: ELISA, coated CR6261, P. pastoris medium.
For experiment [7], the target named is 145F2 (influenza A H1N1 A/Brisbane/59/2007). Briefly: ELISA, coated CR6261, P. pastoris medium.
Experiment [8] deals with 188A8 (influenza A H1N1 A/Brisbane/59/2007). Briefly: ELISA, coated CR6261, P. pastoris medium.
Experiment [9] deals with 284B9 (influenza A H1N1 A/Brisbane/59/2007). Description: ELISA, coated CR6261, P. pastoris medium.
Experiment [10] addresses 307A10 (influenza A H1N1 A/Brisbane/59/2007). Briefly: ELISA, coated CR6261, P. pastoris medium.
Experiment [11] has as its target 244B8 (influenza A H1N1 A/Brisbane/59/2007). Briefly: ELISA, coated CR6261, P. pastoris medium.
The target in experiment [12] is 252B8 (influenza A H1N1 A/Brisbane/59/2007). Description: ELISA, coated CR6261, P. pastoris medium.
The target of experiment [13] is 134A4 (influenza A H1N1 A/Brisbane/59/2007). Description: ELISA, coated CR6261, P. pastoris medium.
Experiment [14] addresses NY_s127H1-t2-cl18long (influenza A virus H1N1 A/New York/629/95).
Experiment [15] addresses Tex_s127H1-t2-cl18long (influenza A virus H1N1 A/Texas/UR06-0526/07).

B1: CR6261 (antibody, V domains shown)
VH: EVQLVESGAEVKKPGSSVKVSCKASGGPFRSYAISWVRQAPGQGPEWMGGIIPIFGTTKYAPKFQGRVTITADDFAGTVYMELSSLRSEDTAMYYCAKHMGYQVRETMDVWGKGTTVTVSS
VL: QSVLTQPPSVSAAPGQKVTISCSGSSSNIGNDYVSWYQQLPGTAPKLLIYDNNKRPSGIPDRFSGSKSGTSATLGITGLQTGDEANYYCATWDRRPTAYVVFGGGTKLTVLG
The term EC50 denotes the midpoint of the concentration-response curve. The low end stands for greater potency, the high end for weaker potency. B1: the CR6261 binding signal in experiment [1] came out at 400000; in [2] it was 800000; in experiment [3], 115000; in experiment [4] it was 396000; in [5], 193000; in experiment [6], 278000. The CR6261 binding signal in experiment [7] came out at 499000; in experiment [8] it was 279000; in experiment [9] it was 1.66e+06; in [10] it was 115000; in [11], 274000; in [12], 285000. The molecule further gave a CR6261 binding signal in experiment [13] of 456000. The EC50 in experiment [14] amounted to 0.455 µg/mL; in [15] it was 0.369 µg/mL.
